Target: Est1-(myc)13 (Saccharomyces cerevisiae (from context; not stated for this protein)) (UniProt P17214)
Experiment: co-immunoprecipitation with anti-Rat1 peptide antibodies from extracts of yeast over-expressing Est1-(myc)13, probed for myc

Chain of UniProt P17214 (P17214 whole entry): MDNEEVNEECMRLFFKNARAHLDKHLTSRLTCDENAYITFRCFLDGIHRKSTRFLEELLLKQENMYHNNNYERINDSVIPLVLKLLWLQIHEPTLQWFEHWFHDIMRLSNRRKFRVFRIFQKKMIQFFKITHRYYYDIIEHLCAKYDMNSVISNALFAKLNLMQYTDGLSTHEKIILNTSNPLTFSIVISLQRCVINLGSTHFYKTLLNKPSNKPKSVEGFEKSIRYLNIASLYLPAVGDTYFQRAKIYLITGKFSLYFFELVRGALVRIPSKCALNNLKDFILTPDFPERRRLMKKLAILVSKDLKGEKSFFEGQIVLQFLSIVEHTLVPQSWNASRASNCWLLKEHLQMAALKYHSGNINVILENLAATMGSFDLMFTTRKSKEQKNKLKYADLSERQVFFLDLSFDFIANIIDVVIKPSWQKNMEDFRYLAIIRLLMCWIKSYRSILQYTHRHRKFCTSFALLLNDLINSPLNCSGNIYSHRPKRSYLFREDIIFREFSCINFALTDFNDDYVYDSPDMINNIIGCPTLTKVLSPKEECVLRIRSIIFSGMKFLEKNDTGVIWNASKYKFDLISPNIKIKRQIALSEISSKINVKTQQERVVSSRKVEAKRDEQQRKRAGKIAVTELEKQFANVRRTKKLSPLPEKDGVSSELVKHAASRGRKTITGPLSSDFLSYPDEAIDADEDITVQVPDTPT

Substance: S. cerevisiae Rat1 protein (from UniProt Q02792 2-1006) (enzyme)
- co-immunoprecipitation efficiency: 5%
